# From US20220332804A1 (CSL INNOVATION, published 2022)
# Positions count from the first letter of the chain named.
# T1: human C2 R714A (human, UniProt P06681 21-752)
# T1 sequence: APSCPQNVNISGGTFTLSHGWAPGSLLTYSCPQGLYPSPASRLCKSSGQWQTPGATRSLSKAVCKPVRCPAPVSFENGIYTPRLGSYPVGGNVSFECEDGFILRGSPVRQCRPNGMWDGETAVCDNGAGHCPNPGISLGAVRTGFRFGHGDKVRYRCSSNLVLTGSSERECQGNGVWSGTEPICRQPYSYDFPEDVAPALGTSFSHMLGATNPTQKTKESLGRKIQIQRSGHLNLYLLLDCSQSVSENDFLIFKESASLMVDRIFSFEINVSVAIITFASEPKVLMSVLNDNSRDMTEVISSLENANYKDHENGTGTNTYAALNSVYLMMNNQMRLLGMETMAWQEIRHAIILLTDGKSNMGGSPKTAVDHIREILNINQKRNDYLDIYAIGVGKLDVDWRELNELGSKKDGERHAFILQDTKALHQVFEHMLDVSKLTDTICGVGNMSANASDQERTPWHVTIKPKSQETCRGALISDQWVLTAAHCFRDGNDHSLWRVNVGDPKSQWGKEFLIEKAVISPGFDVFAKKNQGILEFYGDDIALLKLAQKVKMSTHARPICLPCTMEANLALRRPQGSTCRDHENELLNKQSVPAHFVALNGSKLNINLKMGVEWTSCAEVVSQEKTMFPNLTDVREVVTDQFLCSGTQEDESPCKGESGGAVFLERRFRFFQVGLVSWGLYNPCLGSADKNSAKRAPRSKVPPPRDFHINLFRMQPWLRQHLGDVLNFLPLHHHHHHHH
# T2: human C2 D419A (human, UniProt P06681 21-752)
# T2 sequence: T1 sequence with D399A, A694R
# T3: human C2 N268A (human, UniProt P06681 21-752)
# T3 sequence: T1 sequence with N248A, A694R
# T4: human C2 M648A (human, UniProt P06681 21-752)
# T4 sequence: T1 sequence with M628A, A694R
# B1: RF16-226 (antibody, human IgG4 S228P, lambda)
# heavy: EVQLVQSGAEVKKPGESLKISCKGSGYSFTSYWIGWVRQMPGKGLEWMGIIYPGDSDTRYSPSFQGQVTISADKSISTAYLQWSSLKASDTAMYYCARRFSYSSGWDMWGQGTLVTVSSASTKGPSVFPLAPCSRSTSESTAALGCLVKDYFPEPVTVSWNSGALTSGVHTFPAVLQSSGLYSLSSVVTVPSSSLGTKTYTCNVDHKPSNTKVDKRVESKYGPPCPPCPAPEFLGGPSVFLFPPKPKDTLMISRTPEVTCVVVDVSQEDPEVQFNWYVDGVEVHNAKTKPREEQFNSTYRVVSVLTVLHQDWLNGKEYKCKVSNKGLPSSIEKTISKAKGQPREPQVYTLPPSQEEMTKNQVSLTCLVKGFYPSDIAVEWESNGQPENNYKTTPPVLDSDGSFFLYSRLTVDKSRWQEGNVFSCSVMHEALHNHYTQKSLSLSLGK
# light: SYELTQPPSVSVSPGQTARITCSGDALTSKYVAWYQQKSGLAPLLVIYEDTRRPSGIPAKFSGSSSGSVATLTISGAHGDDEADYYCYSTDASGHQRVFGGGTKLTVLSQPKAAPSVTLFPPSSEELQANKATLVCLISDFYPGAVTVAWKADGSPVKAGVETTKPSKQSNNKYAASSYLSLTPEQWKSHRSYSCQVTHEGSTVEKTVAPTECS
# notes: pH-dependent anti-C2 antibody from a phage display library; also called WT
# Tests used:
# Experiment in all cases: SPR, KD relative to WT C2;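 note: biacore SPR at 37 °C, anti-C2 mAbs captured via immobilised goat anti-human IgG, C2 alanine or serine surface mutants as analytes, 1:1 model fitted, double-referenced sensograms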
# human C2 R714A = biological target: T1, human C2 R714A
# human C2 D419A = biological target: T2, human C2 D419A
# human C2 N268A = biological target: T3, human C2 N268A
# human C2 M648A = biological target: T4, human C2 M648A
binder,measurement,setting,value
B1,Fold diff,human C2 R714A,5 fold
same,Fold diff,human C2 D419A,2 fold
same,Fold diff,human C2 N268A,1 fold
same,Fold diff,human C2 M648A,20 fold
